According to paper PMC8998336, “Structural and Biophysical Insights into SPINK1 Bound to Human Cationic Trypsin” (International Journal of Molecular Sciences, 2022):
Positions count from the first letter of the chain named. Numbers in names are those of the source.

B1: serine protease inhibitor Kazal-type 1 (SPINK1) WT (natural protein, human, UniProt P00995 24-79, looked up)
chain: DSLGREAKCYNELNGCTKIYDPVCGTDGNTYPNECVLCFENRKRQTSILIQKSGPC
notes: N-terminal truncation removes the signal peptide; pET47b construct with His6-tag and HRV3C cleavage site; source: SHuffle T7 Express E. coli, purified (HisTrap HP, HRV3C digestion, His6-tag removed on the same HisTrap column); not shown: His6, N-terminal, cleaved
B2: serine protease inhibitor Kazal-type 1 (SPINK1) p.N34S (natural protein, human, UniProt P00995 24-79, looked up)
chain: B1 chain with N11S
notes: made by site directed mutagenesis; pET47b construct with His6-tag and HRV3C cleavage site; also called SPINK1 N34S; p.N34S mutant; source: SHuffle T7 Express E. coli, purified (HisTrap HP, HRV3C digestion, His6-tag removed on the same HisTrap column); not shown: His6, N-terminal, cleaved

Experiments:
Settings in all cases: both partners purified
[1] = molecular target: T1, human cationic trypsin (TRY1) p.S200A (human, UniProt P07477 24-247, p.S200A); experiment: ITC; MicroCal PEAQ-ITC, 37 °C; TRY1 p.S200A in the cell at 5-10 µM, SPINK1 in the syringe at 50-100 µM; 20 mM Hepes pH 7.4, 150 mM NaCl, 2 mM CaCl2; one-site binding model
T1 construct: human cationic trypsin (TRY1); cloned as amino acids 16-247 (signal peptide removed); His6-tag and propeptide removed after enterokinase digestion; the final structure contains amino acids 24-247; catalytic serine replaced by alanine; also called TRY1 S200A; not shown: His6, N-terminal, cleaved

[2] = molecular target: T1, human cationic trypsin (TRY1) p.S200A; experiment: SPR; BIAcore T200, TRY1 p.S200A amine-coupled to a CM5 chip; SPINK1 3.125-50 nM, single-cycle kinetics, 37 °C, 50 µL/min; 20 mM Hepes pH 7.4, 150 mM NaCl, 2 mM CaCl2, 0.05% Tween20; 1:1 Langmuir model
[3] = molecular target: T2, human cationic trypsin (TRY1) WT (human, UniProt P07477 24-247); experiment: enzyme inhibition assay (Morrison tight-binding fit); 100 pM TRY1, 1 mM L-BAPA, SPINK1 15.625-2000 pM; 20 mM Hepes pH 7.4, 150 mM NaCl, 2 mM CaCl2, 0.05% Tween20; 37 °C; initial rates after a 5 h lag phase; Morrison's quadratic equation
T2 construct: human cationic trypsin (TRY1); cloned as amino acids 16-247 (signal peptide removed); His6-tag and propeptide removed after enterokinase digestion; not shown: His6, N-terminal, cleaved

Binder	dH [1]	half-life t1/2 of the complex [2]	kon [2]	Ki [3]
B1	~-41.8 kJ/mol	~1 h	250000 M⁻¹ s⁻¹	< 0.05 nM
B2	~-41.8 kJ/mol	~1 h	250000 M⁻¹ s⁻¹	< 0.05 nM
